Measurements as given in patent US20250090699A1, “FAP TARGETING CYCLIC PEPTIDES AND CONJUGATES THEREOF” (Novartis AG, priority 2023, published 2025).
Where two headings read alike, the source gives them in different places. Starred links: 1 amine or outer side, 2 acyl side, 3 side chain; linkers in the order of their positions; H or OH if unused. Positions of bridges follow the written chain, without caps; N, C: chain ends. Non-standard residues stand in square brackets, D forms with d. Residues, ends and D or L forms follow the SMILES beside them. Groups on a side chain read outwards from the residue. Chains are numbered I, II in the order given. *: point of attachment. F4(amMeGlyDOTALu) = lutetium complex of (S)-2,2',2''-(10-(2-((2-((4-(2-amino-2-carboxyethyl)benzyl)amino)-2-oxoethyl)(methyl)amino)-2-oxoethyl)-1,4,7,10-tetraazacyclododecane-1,4,7-triyl)triacetic acid (Phe with 4-aminomethyl-N-methyl-Gly-D, CN(CC(=O)NCc1ccc(C[C@H](N[*:1])C(=O)[*:2])cc1)C(=O)CN1CCN(CC(=O)[O-])CCN(CC(=O)[O-])CCN(CC(=O)[O-])CC1.[Lu+3]; F(4OEtNHDOTA-Lu) = lutetium complex of (S)-2,2',2''-(10-(2-((2-(4-(2-amino-2-carboxyethyl)phenoxy)ethyl)amino)-2-oxoethyl)-1,4,7,10-tetraazacyclododecane-1,4,7-triyl)triacetic acid (Phe with 4-O-ethylamino-DOTA-Lu), O=C([O-])CN1CCN(CC(=O)[O-])CCN(CC(=O)NCCOc2ccc(C[C@H](N[*:1])C(=O)[*:2])cc2)CCN(CC(=O)[O-])CC1.[Lu+3]; X1 = O=C(O)CN1CCN(CC(=O)O)CCN(CC(=O)NC(CC(=O)NCCOCCOCC(=O)[*:1])CC(=O)NCCOCCOCC(=O)[*:2])CCN(CC(=O)O)CC1; Phe(4-CH2NH2) = NCc1ccc(C[C@H](N)C(=O)O)cc1; Piperazinyl(4-CH2COOH) = O=C(O)CN1CCN(*)CC1; Nicotinoyl(6-F) = O=C(c1ccc(F)nc1)*; NMeF = CN[C@@H](Cc1ccccc1)C(=O)O; Aoc(2) = CCCCCC[C@H](N)C(=O)O; Ahp(2) = CCCCC[C@H](N)C(=O)O; hSer = N[C@@H](CCO)C(=O)O; AEEA = NCCOCCOCC(=O)O; CO = O=C([*:1])[*:2]; Propyl = CCC*

How the values were obtained:
human FAP [1] = target: T1, human FAP (Homo sapiens, UniProt Q12884); assay: Surface plasmon resonance (SPR) for peptide affinity, human FAP; type: binding; settings: read-out: h. FAP, SPR, KD
T1 construct: the biotinylated His, Avi tag, human FAP (26-760, FAP-H82Q6); His; Avi tag (biotinylated); purchased AcroBiosystems FAP-H82Q6
T1 sequence (Q12884 26-760): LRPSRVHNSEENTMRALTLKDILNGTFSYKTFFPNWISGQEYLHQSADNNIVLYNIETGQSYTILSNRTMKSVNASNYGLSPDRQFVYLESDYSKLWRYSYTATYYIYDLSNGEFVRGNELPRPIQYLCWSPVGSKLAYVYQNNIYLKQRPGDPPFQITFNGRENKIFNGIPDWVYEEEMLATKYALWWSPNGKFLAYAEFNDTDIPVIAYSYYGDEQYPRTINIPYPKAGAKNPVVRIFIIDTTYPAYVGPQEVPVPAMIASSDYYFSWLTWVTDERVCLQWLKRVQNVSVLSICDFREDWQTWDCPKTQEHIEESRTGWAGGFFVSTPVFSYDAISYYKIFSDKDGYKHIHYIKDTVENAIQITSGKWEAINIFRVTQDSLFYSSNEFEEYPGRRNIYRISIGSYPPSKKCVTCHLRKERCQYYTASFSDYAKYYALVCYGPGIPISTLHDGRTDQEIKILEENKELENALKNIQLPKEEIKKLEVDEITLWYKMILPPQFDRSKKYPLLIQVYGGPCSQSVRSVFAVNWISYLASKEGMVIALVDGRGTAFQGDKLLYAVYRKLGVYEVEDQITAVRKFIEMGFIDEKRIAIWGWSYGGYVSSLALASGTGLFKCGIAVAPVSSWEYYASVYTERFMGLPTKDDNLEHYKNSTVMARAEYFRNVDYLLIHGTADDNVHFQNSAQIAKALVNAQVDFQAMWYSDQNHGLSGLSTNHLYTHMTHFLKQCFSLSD
Description: Peptide affinities (KD) were determined by SPR using a Biacore™ 8K device (Cytiva) towards the following proteins: biotinylated His, Avi tag, human FAP (26-760, FAP-H82Q6), biotinylated His, Avi tag, mouse FAP (26-761, FAP-M82Q5), His tag, human DPP4 (34-766, DP4-H82E3), all purchased from AcroBiosystems and His tag, mouse DPP4 (29-760, 954-SE) from R&D Systems. The FAP proteins and their homologous were diluted to a concentration of 2 μg/mL into acetate buffer pH 5.5, then immobilized onto a CM5 sensorchip (Cytiva, BR-1005-30) to reach a response around 2000 R U. The running buffer HBS-EP+pH 7.6 (20× from Teknova CAT. No: H8022) contained 10 mM HEPES pH 7.6, 150 mM NaCl, 3 mM EDTA, 0.05% Tween20 and 2% DMSO. Experiments were carried out at 25° C. using a flow rate of 30 μL/min. Compounds were tested in single cycle kinetic mode at 8 different concentrations. Curve fitting was performed using the Biacore™ 8K evaluation software. The sensorgrams were fitted by applying a 1:1 binding model to calculate kinetic rate constants and equilibrium dissociation constants (KD).
For this assay, the setup had the same conditions (flow rate, running buffer, peptide dilution) as described above for the CM5 method. The oligo CAP reagent obtained in the CAPture Kit (Ref. 28920234) was 1/5 diluted into running buffer and used with a contact time of 300 s at a flow rate of 2 μL/min. The human and mouse FAP constructs described above were used (from AcroBiosystems or produced in house). The FAP proteins were diluted to a concentration of 2 μg/mL into acetate pH 5.5, 0.05% Tween20 and used with a contact time of 600 s at a flow rate of 10 μL/min. The peptides were tested with an association time of 280 s followed by a dissociation time of 3000 s at a flow rate of 30 μL/min. The regeneration was done using the regeneration solution (8 M guanidine-HCl, 1 M NaOH) as obtained with a contact time of 270 s at a flow rate of 10 μL/min. […] The compounds marked with an asterisk were tested against human and mouse DDP4.

mouse FAP [2] = target: T2, mouse FAP (Mus musculus, UniProt P97321); assay: Surface plasmon resonance (SPR) for peptide affinity, mouse FAP; type: binding
T2 construct: biotinylated His, Avi tag, mouse FAP (26-761, FAP-M82Q5); His; Avi tag (biotinylated); purchased AcroBiosystems FAP-M82Q5
T2 sequence (P97321 26-761): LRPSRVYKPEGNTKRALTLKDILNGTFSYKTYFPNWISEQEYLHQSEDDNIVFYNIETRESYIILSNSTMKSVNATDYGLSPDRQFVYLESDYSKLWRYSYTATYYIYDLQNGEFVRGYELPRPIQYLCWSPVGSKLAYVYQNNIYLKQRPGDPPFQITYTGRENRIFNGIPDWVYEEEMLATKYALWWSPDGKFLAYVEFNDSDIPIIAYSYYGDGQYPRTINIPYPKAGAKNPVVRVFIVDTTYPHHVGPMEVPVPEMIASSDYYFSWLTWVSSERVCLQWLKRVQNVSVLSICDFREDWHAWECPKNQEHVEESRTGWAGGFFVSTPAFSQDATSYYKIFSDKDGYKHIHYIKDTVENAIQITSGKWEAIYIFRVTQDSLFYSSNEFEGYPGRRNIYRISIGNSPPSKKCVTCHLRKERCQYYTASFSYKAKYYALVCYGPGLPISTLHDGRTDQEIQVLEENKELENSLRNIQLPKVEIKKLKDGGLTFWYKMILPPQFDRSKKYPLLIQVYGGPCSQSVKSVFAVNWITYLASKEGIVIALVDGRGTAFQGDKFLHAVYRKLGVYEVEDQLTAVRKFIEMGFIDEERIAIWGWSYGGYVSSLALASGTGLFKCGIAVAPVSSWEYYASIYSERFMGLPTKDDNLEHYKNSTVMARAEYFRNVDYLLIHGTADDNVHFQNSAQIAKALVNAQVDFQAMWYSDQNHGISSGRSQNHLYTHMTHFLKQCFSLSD
How it was run: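 Biotinylated His/Avi-tagged FAP ectodomains (human 26-760, mouse 26-761) captured or immobilized on Biacore sensor chips; peptides run at 25 °C in HBS-EP+ pH 7.6 with 2% DMSO, single-cycle kinetics, 8 concentrations. KD from 1:1 binding-model fit of sensorgrams.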

human FAP [3] = target: T1, human FAP; assay: Enzymatic FAP competition assay (Z-Gly-Pro-AMC fluorescence), human FAP; type: biochemical; settings: read-out: h. FAP, Enz., IC50
How it was run: (§1)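 Biotinylated His/Avi-tagged FAP ectodomain (human 26-760, mouse 26-761) at 0.01 nM, preincubated 24 h with peptides (14 concentrations, up to 1 μM) in pH 7.5 phosphate, 150 mM NaCl, 0.05% Tween20, 1% DMSO. Then 50 μM Z-Gly-Pro-AMC, 4 h at 22-24° C; AMC fluorescence (380/460 nm) gave IC50 from duplicate points.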

mouse FAP [4] = target: T2, mouse FAP; assay: Enzymatic FAP competition assay (Z-Gly-Pro-AMC fluorescence), mouse FAP; type: biochemical; settings: read-out: m. FAP, Enz., IC50
How it was run: as §1

Compound | Kd (human FAP [1]) [nM] | Kd (mouse FAP [2]) [nM] | IC50 (human FAP [3]) [nM] | IC50 (mouse FAP [4]) [nM] | Kd (mouse FAP [2]; values marked ** : including further experimental repetition) [nM]
CCCCCC[C@@H]1NC(=O)[C@H](Cc2ccc(CNC(=O)COCCOCCNC(=O)CC(CC(=O)NCCOCCOCC(=O)NCc3ccc(C[C@@H]4NC(=O)[C@H](Cc5ccccc5)N(C)C(=O)CNC(=O)CNC(=O)[C@H]5CCCN5C(=O)[C@H](CC(=O)O)NC(=O)[C@H](CCCCNC(=O)N5CCN(CC(=O)O)CC5)NC(=O)CNC(=O)[C@H](Cc5c[nH]c6ccccc56)NC(=O)[C@H](CCCCCC)NC4=O)cc3)NC(=O)CN3CCN(CC(=O)O)CCN(CC(=O)O)CCN(CC(=O)O)CC3)cc2)NC(=O)[C@H](Cc2ccccc2)N(C)C(=O)CNC(=O)CNC(=O)[C@H]2CCCN2C(=O)[C@H](CC(=O)O)NC(=O)[C@H](CCCCNC(=O)N2CCN(CC(=O)O)CC2)NC(=O)CNC(=O)[C@H](Cc2c[nH]c3ccccc23)NC1=O [Example M1] (I: cyclo(GG[NMeF][Phe(4-CH2NH2)][Aoc(2)]WGK([CO-Piperazinyl(4-CH2COOH)])D[dP]) / II: cyclo(GG[NMeF][Phe(4-CH2NH2)][Aoc(2)]WGK([CO-Piperazinyl(4-CH2COOH)])D[dP]); linker I:4-II:4 via X1) | < 0.03 | < 0.057 | 0.039 | 0.134 | –
CCCOCC[C@@H]1NC(=O)[C@H](Cc2ccc(CNC(=O)COCCOCCNC(=O)c3ccc(F)nc3)cc2)NC(=O)[C@H](Cc2ccccc2)N(C)C(=O)CNC(=O)CNC(=O)[C@H]2CCCN2C(=O)[C@H](CC(=O)O)NC(=O)[C@H](CCCCNC(=O)N2CCN(CC(=O)O)CC2)NC(=O)CNC(=O)[C@H](Cc2c[nH]c3ccccc23)NC1=O [Example C56, Gly-Gly-NMePhe-F(4amPEG2NHCOPy3(4F))-hS(Pr)-Trp-Gly-K(Copipzaa)-Asp-D-Pro] (cyclo(D[dP]GG[NMeF][Phe(4-CH2NH2)]([AEEA-Nicotinoyl(6-F)])[hSer](Propyl)WGK([CO-Piperazinyl(4-CH2COOH)]))) | < 0.007 | < 0.023 | 0.009 | 0.037 | –
Gly-Gly-NMePhe-F4(amMeGlyDOTALu)-Ahp-Trp-Gly-Tyr-Asp-D-Pro (cyclo(GG[NMeF][F4(amMeGlyDOTALu)][Ahp(2)]WGYD[dP]); also: Lu complex) [Example C8] | 0.004 | 0.006 | 0.007 | 0.012 | –
Gly-Gly-NMePhe-F(4OEtNHDOTA-Lu)-Ahp-Trp-Gly-Tyr-Asp-D-Pro (cyclo(GG[NMeF][F(4OEtNHDOTA-Lu)][Ahp(2)]WGYD[dP]); also: Lu complex of DOTA) [Example C23] | < 0.009 | < 0.011 | 0.016 | 0.061 | < 0.06
